From patent publication US20220308072A1

Assays:
[1] = target: Recombinant, his tagged full length human frataxin protein (Abcam ab95502) (human) (UniProt Q16595); experiment: Simoa sandwich 2-step (120 min-5 min); capture Ab-1; frataxin 667 pg/mL
[2] = target: Recombinant, his tagged full length human frataxin protein (Abcam ab95502) (human) (UniProt Q16595); experiment: Simoa sandwich 3-step; capture Ab-4; frataxin 100 pg/mL
[3] = target: Recombinant, his tagged full length human frataxin protein (Abcam ab95502) (human) (UniProt Q16595); experiment: Simoa sandwich; capture Ab-1; no helper beads; frataxin 500 pg/mL
[4] = target: Recombinant, his tagged full length human frataxin protein (Abcam ab95502) (human) (UniProt Q16595); experiment: Simoa sandwich 2-step; capture Ab-2; frataxin 100 pg/mL
[5] = target: Recombinant, his tagged full length human frataxin protein (Abcam ab95502) (human) (UniProt Q16595); experiment: Simoa sandwich 2-step (35 min-5 min); capture Ab-1; with helper beads; frataxin 500 pg/mL
[6] = target: Recombinant, his tagged full length human frataxin protein (Abcam ab95502) (human) (UniProt Q16595); experiment: Simoa sandwich 2-step (35 min-5 min); capture Ab-1; with helper beads; frataxin 2.06 pg/mL
[7] = target: Recombinant, his tagged full length human frataxin protein (Abcam ab95502) (human) (UniProt Q16595); experiment: Simoa sandwich 2-step (35 min-5 min); capture Ab-1; with helper beads
[8] = target: Recombinant, his tagged full length human frataxin protein (Abcam ab95502) (human) (UniProt Q16595); experiment: Simoa sandwich 2-step; capture Ab-2; frataxin 0.686 pg/mL
[9] = target: Recombinant, his tagged full length human frataxin protein (Abcam ab95502) (human) (UniProt Q16595); experiment: Simoa sandwich 2-step (35 min-5 min); capture Ab-1; with helper beads; frataxin 18.5 pg/mL
[10] = target: Recombinant, his tagged full length human frataxin protein (Abcam ab95502) (human) (UniProt Q16595); experiment: Simoa sandwich 2-step; capture Ab-1; frataxin 167 pg/mL
[11] = target: Recombinant, his tagged full length human frataxin protein (Abcam ab95502) (human) (UniProt Q16595); experiment: Simoa sandwich 3-step; capture Ab-5; frataxin 100 pg/mL
[12] = target: Recombinant, his tagged full length human frataxin protein (Abcam ab95502) (human) (UniProt Q16595); experiment: Simoa sandwich 2-step (120 min-5 min); capture Ab-1; Diluent 1 + 5% NCS; frataxin 111 pg/mL
[13] = target: Recombinant, his tagged full length human frataxin protein (Abcam ab95502) (human) (UniProt Q16595); experiment: Simoa sandwich 2-step (120 min-5 min); capture Ab-1; Diluent 1 + 5% NCS; frataxin 333 pg/mL
[14] = target: Recombinant, his tagged full length human frataxin protein (Abcam ab95502) (human) (UniProt Q16595); experiment: Simoa sandwich 2-step; capture Ab-2; frataxin 6.17 pg/mL

Chain of UniProt Q16595 (Q16595 42-210): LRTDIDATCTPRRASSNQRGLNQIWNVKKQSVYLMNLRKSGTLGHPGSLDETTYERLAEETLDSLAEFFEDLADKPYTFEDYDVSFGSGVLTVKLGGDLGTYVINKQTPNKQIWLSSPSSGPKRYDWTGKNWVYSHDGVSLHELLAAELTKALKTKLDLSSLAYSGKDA

Substance: Ab-3, mouse monoclonal [18A5DB1] to Frataxin (Abcam ab110328) (antibody)
- AEB rep1 [1]: 3.57 AEB
- AEB rep2 [1]: 3.99 AEB
- AEB rep3 [1]: 3.61 AEB
- Ave AEB [1]: 3.73 AEB
- S/B [1]: 451
- Ave AEB [2]: 1.05 AEB
- S/B [2]: 21.9
- AEB Rep1 [3]: 7.94 AEB
- AEB Rep2 [3]: 5.08 AEB
- Ave AEB [3]: 6.51 AEB
- S/B [3]: 288
- Ave AEB [4]: 7.14 AEB
- S/B [4]: 88.6
- AEB Rep1 [5]: 22.8 AEB
- AEB Rep2 [5]: 22.7 AEB
- Ave AEB [5]: 22.8 AEB
- S/B [5]: 935
- AEB Rep1 [6]: 0.146 AEB
- AEB Rep2 [6]: 0.143 AEB
- Ave AEB [6]: 0.144 AEB
- S/B [6]: 5.93
- Estimated LLOQ [7]: 0.321 pg/mL
- LOD [7]: 0.117 pg/mL
- Ave AEB [8]: 0.165 AEB
- S/B [8]: 1.73
- AEB Rep1 [9]: 1.14 AEB
- AEB Rep2 [9]: 1.19 AEB
- Ave AEB [9]: 1.16 AEB
- S/B [9]: 47.8
- Ave AEB [10]: 15.1 AEB
- S/B [10]: 145
- Ave AEB [11]: 2.9 AEB
- S/B [11]: 15.2
- Ave AEB [12]: 1.02 AEB
- S/B [12]: 93.1
- Ave AEB [13]: 3.06 AEB
- S/B [13]: 279
- Ave AEB [14]: 0.737 AEB
- S/B [14]: 7.72
